The labels stand for the following.
B1: Compound 173 (peptide)
peptide: Isovaleryl-APAK([AEEA-AEEA-γGlu-C18 diacid])PEEDASPEELQRYYVELRHYYNWLTRQRY-NH2
SMILES: CC(C)CC(=O)N[C@@H](C)C(=O)N1CCC[C@H]1C(=O)N[C@@H](C)C(=O)N[C@@H](CCCCNC(=O)COCCOCCNC(=O)COCCOCCNC(=O)CC[C@H](NC(=O)CCCCCCCCCCCCCCCCC(=O)O)C(=O)O)C(=O)N1CCC[C@H]1C(=O)N[C@@H](CCC(=O)O)C(=O)N[C@@H](CCC(=O)O)C(=O)N[C@@H](CC(=O)O)C(=O)N[C@@H](C)C(=O)N[C@@H](CO)C(=O)N1CCC[C@H]1C(=O)N[C@@H](CCC(=O)O)C(=O)N[C@@H](CCC(=O)O)C(=O)N[C@@H](CC(C)C)C(=O)N[C@@H](CCC(N)=O)C(=O)N[C@@H](CCCNC(=N)N)C(=O)N[C@@H](Cc1ccc(O)cc1)C(=O)N[C@@H](Cc1ccc(O)cc1)C(=O)N[C@H](C(=O)N[C@@H](CCC(=O)O)C(=O)N[C@@H](CC(C)C)C(=O)N[C@@H](CCCNC(=N)N)C(=O)N[C@@H](Cc1c[nH]cn1)C(=O)N[C@@H](Cc1ccc(O)cc1)C(=O)N[C@@H](Cc1ccc(O)cc1)C(=O)N[C@@H](CC(N)=O)C(=O)N[C@@H](Cc1c[nH]c2ccccc12)C(=O)N[C@@H](CC(C)C)C(=O)N[C@H](C(=O)N[C@@H](CCCNC(=N)N)C(=O)N[C@@H](CCC(N)=O)C(=O)N[C@@H](CCCNC(=N)N)C(=O)N[C@@H](Cc1ccc(O)cc1)C(N)=O)[C@@H](C)O)C(C)C
B2: Compound 178 (peptide)
peptide: Isovaleryl-APEK([AEEA-AEEA-γGlu-C18 diacid])PEEDATPEETERYYVSLRHYYNWLTRQRY-NH2
SMILES: CC(C)CC(=O)N[C@@H](C)C(=O)N1CCC[C@H]1C(=O)N[C@@H](CCC(=O)O)C(=O)N[C@@H](CCCCNC(=O)COCCOCCNC(=O)COCCOCCNC(=O)CC[C@H](NC(=O)CCCCCCCCCCCCCCCCC(=O)O)C(=O)O)C(=O)N1CCC[C@H]1C(=O)N[C@@H](CCC(=O)O)C(=O)N[C@@H](CCC(=O)O)C(=O)N[C@@H](CC(=O)O)C(=O)N[C@@H](C)C(=O)N[C@H](C(=O)N1CCC[C@H]1C(=O)N[C@@H](CCC(=O)O)C(=O)N[C@@H](CCC(=O)O)C(=O)N[C@H](C(=O)N[C@@H](CCC(=O)O)C(=O)N[C@@H](CCCNC(=N)N)C(=O)N[C@@H](Cc1ccc(O)cc1)C(=O)N[C@@H](Cc1ccc(O)cc1)C(=O)N[C@H](C(=O)N[C@@H](CO)C(=O)N[C@@H](CC(C)C)C(=O)N[C@@H](CCCNC(=N)N)C(=O)N[C@@H](Cc1c[nH]cn1)C(=O)N[C@@H](Cc1ccc(O)cc1)C(=O)N[C@@H](Cc1ccc(O)cc1)C(=O)N[C@@H](CC(N)=O)C(=O)N[C@@H](Cc1c[nH]c2ccccc12)C(=O)N[C@@H](CC(C)C)C(=O)N[C@H](C(=O)N[C@@H](CCCNC(=N)N)C(=O)N[C@@H](CCC(N)=O)C(=O)N[C@@H](CCCNC(=N)N)C(=O)N[C@@H](Cc1ccc(O)cc1)C(N)=O)[C@@H](C)O)C(C)C)[C@@H](C)O)[C@@H](C)O
B3: Compound 177 (peptide)
peptide: Isovaleryl-APEK([AEEA-AEEA-γGlu-C18 diacid])PEEDSSPEELQRYYVELRHYYNWLTRQRY-NH2
SMILES: CC(C)CC(=O)N[C@@H](C)C(=O)N1CCC[C@H]1C(=O)N[C@@H](CCC(=O)O)C(=O)N[C@@H](CCCCNC(=O)COCCOCCNC(=O)COCCOCCNC(=O)CC[C@H](NC(=O)CCCCCCCCCCCCCCCCC(=O)O)C(=O)O)C(=O)N1CCC[C@H]1C(=O)N[C@@H](CCC(=O)O)C(=O)N[C@@H](CCC(=O)O)C(=O)N[C@@H](CC(=O)O)C(=O)N[C@@H](CO)C(=O)N[C@@H](CO)C(=O)N1CCC[C@H]1C(=O)N[C@@H](CCC(=O)O)C(=O)N[C@@H](CCC(=O)O)C(=O)N[C@@H](CC(C)C)C(=O)N[C@@H](CCC(N)=O)C(=O)N[C@@H](CCCNC(=N)N)C(=O)N[C@@H](Cc1ccc(O)cc1)C(=O)N[C@@H](Cc1ccc(O)cc1)C(=O)N[C@H](C(=O)N[C@@H](CCC(=O)O)C(=O)N[C@@H](CC(C)C)C(=O)N[C@@H](CCCNC(=N)N)C(=O)N[C@@H](Cc1c[nH]cn1)C(=O)N[C@@H](Cc1ccc(O)cc1)C(=O)N[C@@H](Cc1ccc(O)cc1)C(=O)N[C@@H](CC(N)=O)C(=O)N[C@@H](Cc1c[nH]c2ccccc12)C(=O)N[C@@H](CC(C)C)C(=O)N[C@H](C(=O)N[C@@H](CCCNC(=N)N)C(=O)N[C@@H](CCC(N)=O)C(=O)N[C@@H](CCCNC(=N)N)C(=O)N[C@@H](Cc1ccc(O)cc1)C(N)=O)[C@@H](C)O)C(C)C
B4: Compound 176 (peptide)
peptide: Isovaleryl-APEK([AEEA-AEEA-γGlu-C18 diacid])PEEDASEEELQRYYVSLRHYYNWLTRQRY-NH2
SMILES: CC(C)CC(=O)N[C@@H](C)C(=O)N1CCC[C@H]1C(=O)N[C@@H](CCC(=O)O)C(=O)N[C@@H](CCCCNC(=O)COCCOCCNC(=O)COCCOCCNC(=O)CC[C@H](NC(=O)CCCCCCCCCCCCCCCCC(=O)O)C(=O)O)C(=O)N1CCC[C@H]1C(=O)N[C@@H](CCC(=O)O)C(=O)N[C@@H](CCC(=O)O)C(=O)N[C@@H](CC(=O)O)C(=O)N[C@@H](C)C(=O)N[C@@H](CO)C(=O)N[C@@H](CCC(=O)O)C(=O)N[C@@H](CCC(=O)O)C(=O)N[C@@H](CCC(=O)O)C(=O)N[C@@H](CC(C)C)C(=O)N[C@@H](CCC(N)=O)C(=O)N[C@@H](CCCNC(=N)N)C(=O)N[C@@H](Cc1ccc(O)cc1)C(=O)N[C@@H](Cc1ccc(O)cc1)C(=O)N[C@H](C(=O)N[C@@H](CO)C(=O)N[C@@H](CC(C)C)C(=O)N[C@@H](CCCNC(=N)N)C(=O)N[C@@H](Cc1c[nH]cn1)C(=O)N[C@@H](Cc1ccc(O)cc1)C(=O)N[C@@H](Cc1ccc(O)cc1)C(=O)N[C@@H](CC(N)=O)C(=O)N[C@@H](Cc1c[nH]c2ccccc12)C(=O)N[C@@H](CC(C)C)C(=O)N[C@H](C(=O)N[C@@H](CCCNC(=N)N)C(=O)N[C@@H](CCC(N)=O)C(=O)N[C@@H](CCCNC(=N)N)C(=O)N[C@@H](Cc1ccc(O)cc1)C(N)=O)[C@@H](C)O)C(C)C
B5: Compound 179 (peptide)
peptide: Isovaleryl-APAK([AEEA-AEEA-γGlu-C18 diacid])PEEDASPAELQRYYVSLRHYYNWLTRQRY-NH2
SMILES: CC(C)CC(=O)N[C@@H](C)C(=O)N1CCC[C@H]1C(=O)N[C@@H](C)C(=O)N[C@@H](CCCCNC(=O)COCCOCCNC(=O)COCCOCCNC(=O)CC[C@H](NC(=O)CCCCCCCCCCCCCCCCC(=O)O)C(=O)O)C(=O)N1CCC[C@H]1C(=O)N[C@@H](CCC(=O)O)C(=O)N[C@@H](CCC(=O)O)C(=O)N[C@@H](CC(=O)O)C(=O)N[C@@H](C)C(=O)N[C@@H](CO)C(=O)N1CCC[C@H]1C(=O)N[C@@H](C)C(=O)N[C@@H](CCC(=O)O)C(=O)N[C@@H](CC(C)C)C(=O)N[C@@H](CCC(N)=O)C(=O)N[C@@H](CCCNC(=N)N)C(=O)N[C@@H](Cc1ccc(O)cc1)C(=O)N[C@@H](Cc1ccc(O)cc1)C(=O)N[C@H](C(=O)N[C@@H](CO)C(=O)N[C@@H](CC(C)C)C(=O)N[C@@H](CCCNC(=N)N)C(=O)N[C@@H](Cc1c[nH]cn1)C(=O)N[C@@H](Cc1ccc(O)cc1)C(=O)N[C@@H](Cc1ccc(O)cc1)C(=O)N[C@@H](CC(N)=O)C(=O)N[C@@H](Cc1c[nH]c2ccccc12)C(=O)N[C@@H](CC(C)C)C(=O)N[C@H](C(=O)N[C@@H](CCCNC(=N)N)C(=O)N[C@@H](CCC(N)=O)C(=O)N[C@@H](CCCNC(=N)N)C(=O)N[C@@H](Cc1ccc(O)cc1)C(N)=O)[C@@H](C)O)C(C)C
B6: Compound 174 (peptide)
peptide: Isovaleryl-APAK([AEEA-AEEA-γGlu-C18 diacid])PEEDAEPEELQRYYVSLRHYYNWLTRQRY-NH2
SMILES: CC(C)CC(=O)N[C@@H](C)C(=O)N1CCC[C@H]1C(=O)N[C@@H](C)C(=O)N[C@@H](CCCCNC(=O)COCCOCCNC(=O)COCCOCCNC(=O)CC[C@H](NC(=O)CCCCCCCCCCCCCCCCC(=O)O)C(=O)O)C(=O)N1CCC[C@H]1C(=O)N[C@@H](CCC(=O)O)C(=O)N[C@@H](CCC(=O)O)C(=O)N[C@@H](CC(=O)O)C(=O)N[C@@H](C)C(=O)N[C@@H](CCC(=O)O)C(=O)N1CCC[C@H]1C(=O)N[C@@H](CCC(=O)O)C(=O)N[C@@H](CCC(=O)O)C(=O)N[C@@H](CC(C)C)C(=O)N[C@@H](CCC(N)=O)C(=O)N[C@@H](CCCNC(=N)N)C(=O)N[C@@H](Cc1ccc(O)cc1)C(=O)N[C@@H](Cc1ccc(O)cc1)C(=O)N[C@H](C(=O)N[C@@H](CO)C(=O)N[C@@H](CC(C)C)C(=O)N[C@@H](CCCNC(=N)N)C(=O)N[C@@H](Cc1c[nH]cn1)C(=O)N[C@@H](Cc1ccc(O)cc1)C(=O)N[C@@H](Cc1ccc(O)cc1)C(=O)N[C@@H](CC(N)=O)C(=O)N[C@@H](Cc1c[nH]c2ccccc12)C(=O)N[C@@H](CC(C)C)C(=O)N[C@H](C(=O)N[C@@H](CCCNC(=N)N)C(=O)N[C@@H](CCC(N)=O)C(=O)N[C@@H](CCCNC(=N)N)C(=O)N[C@@H](Cc1ccc(O)cc1)C(N)=O)[C@@H](C)O)C(C)C

*1 amine or outer side, *2 acyl side, *3 side chain or, on linkers, in order; H or OH if unused. Side-chain parts run from the residue outwards. The star is where a group is joined. C18 diacid = O=C(O)CCCCCCCCCCCCCCCCC(=O)*; γGlu = O=C(O)[C@H](CCC(=O)[*:2])N[*:1]; Isovaleryl = CC(C)CC(=O)*; AEEA = NCCOCCOCC(=O)O

The target of this test is T1, human neuropeptide Y2 receptor (human, UniProt P49146 1-381).
T1 construct: whole, on cells; also called hNPY2 receptor; hNPY2-R
T1 sequence (looked up): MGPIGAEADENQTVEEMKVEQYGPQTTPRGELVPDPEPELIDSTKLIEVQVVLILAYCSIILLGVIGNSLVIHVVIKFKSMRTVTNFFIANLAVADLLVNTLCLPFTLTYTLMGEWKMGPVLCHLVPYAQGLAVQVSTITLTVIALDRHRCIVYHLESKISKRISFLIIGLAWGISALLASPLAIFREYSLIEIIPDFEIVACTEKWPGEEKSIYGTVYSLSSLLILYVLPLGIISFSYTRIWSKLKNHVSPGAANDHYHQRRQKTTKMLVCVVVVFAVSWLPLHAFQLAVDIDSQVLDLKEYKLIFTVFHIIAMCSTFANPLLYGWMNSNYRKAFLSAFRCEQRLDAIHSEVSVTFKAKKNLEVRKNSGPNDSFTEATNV
Put plainly: radioligand competition (125I-PYY(1-36)), hNPY2R membranes. Put shortly: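 Commercial human Y2 receptor membranes (0.5 μg protein/well) were incubated with peptide for 2 h at room temperature in 50 mM HEPES, 5 mM MgCl₂, 1 mM CaCl₂, pH 7.4, with 0.2% ovalbumin. Bound radioligand was separated on PEI-soaked GF/C filters and counted by scintillation, and IC₅₀ came from nonlinear sigmoidal regression.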
In general, Ki refers to a measure of affinity in units of concentration, obtained from inhibition or displacement. Low values mean higher affinity, high ones lower affinity. B1 had a Ki of 1.71 nM. That is a single-digit nanomolar value. The molecule B2 displayed a Ki of 2.05 nM. The Ki values of the last two molecules are within 1.5-fold of each other.

As to B3, the affinity, expressed as Ki, was 2.55 nM. This Ki and that of the molecule before are within 1.5-fold of each other.

In turn, B4 gave a Ki of 3.05 nM. This Ki and that of the molecule before are within 1.5-fold of each other. Molecule B5 gave a Ki of 1 nM. Compared with the last molecule, the Ki is about 3-fold lower.

On to B6, for which the Ki was determined as 3.89 nM.
